These results are taken from paper PMC12018839.

The target of the series is T1, GST-PIL15 (Oryza sativa (rice), UniProt Q0JNI9 1-637).
T1 sequence: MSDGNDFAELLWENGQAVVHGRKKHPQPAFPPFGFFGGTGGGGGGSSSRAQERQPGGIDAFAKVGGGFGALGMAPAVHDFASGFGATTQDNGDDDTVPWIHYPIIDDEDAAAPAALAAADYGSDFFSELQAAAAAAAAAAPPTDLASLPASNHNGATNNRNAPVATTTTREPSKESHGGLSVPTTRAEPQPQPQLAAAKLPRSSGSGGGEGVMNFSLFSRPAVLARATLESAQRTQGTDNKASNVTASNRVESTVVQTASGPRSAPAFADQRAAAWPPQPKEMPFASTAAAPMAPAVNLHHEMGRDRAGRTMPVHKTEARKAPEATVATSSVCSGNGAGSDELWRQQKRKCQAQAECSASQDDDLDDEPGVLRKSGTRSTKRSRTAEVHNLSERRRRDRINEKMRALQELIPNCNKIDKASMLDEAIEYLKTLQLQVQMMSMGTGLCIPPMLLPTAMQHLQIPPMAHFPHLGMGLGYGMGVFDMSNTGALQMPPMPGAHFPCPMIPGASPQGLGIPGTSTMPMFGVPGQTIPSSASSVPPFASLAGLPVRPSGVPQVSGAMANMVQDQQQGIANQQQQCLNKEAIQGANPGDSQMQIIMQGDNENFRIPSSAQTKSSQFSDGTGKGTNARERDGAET
The series is described as follows: EMSA. (A gel shift assay detects complexes by their altered migration in electrophoresis.)

B1: PIL15 EMSA probe (AMT1;2 promoter PBE-box) (dsDNA)
DNA 1: AGGATTTCATGTGTTTTGGT
DNA 2: ACCAAAACACATGAAATCCT
With B1, the binding result is on record as “binds”.
